Assay [1] concerns the target human MUC16 on cells (OVCAR-3, PEO1, 3T3/hβ2M/HLA-A2/NYESO1p/hMUC16) (human). Briefly: flow cytometry ('FACS binding', MFI_PE) on cells, the same assay as the other two curves. The control's curve is flat at baseline, so this is a fit value without a response. The unit is taken from the axis, Log10 (M).
For assay [2] the target is unchanged. Description: cell-based or functional assay.
For assay [3] the target is unchanged. Briefly: flow cytometry ('FACS binding', MFI_PE) on cells. The sheet names no cell line; the legend of FIGS. 2A-2I names PEO1 (endogenous MUC16). The unit is taken from the axis, Log10 (M).
Assay [4] concerns the target mCD28.mmh (mouse). Description: SPR (Biacore), 37 C, antibody captured by anti-human Fc, mCD28.mmh injected. A general note: In SPR one partner is held on a chip, and binding of the other changes the refractive index at the surface.
In assay [5] the target is hMUC16.mmh (human). Briefly: SPR (Biacore), 37 C, antibody captured by anti-human Fc, hMUC16.mmh injected.
Chain of hMUC16.mmh (human) (chain, as listed by the source limits assumed): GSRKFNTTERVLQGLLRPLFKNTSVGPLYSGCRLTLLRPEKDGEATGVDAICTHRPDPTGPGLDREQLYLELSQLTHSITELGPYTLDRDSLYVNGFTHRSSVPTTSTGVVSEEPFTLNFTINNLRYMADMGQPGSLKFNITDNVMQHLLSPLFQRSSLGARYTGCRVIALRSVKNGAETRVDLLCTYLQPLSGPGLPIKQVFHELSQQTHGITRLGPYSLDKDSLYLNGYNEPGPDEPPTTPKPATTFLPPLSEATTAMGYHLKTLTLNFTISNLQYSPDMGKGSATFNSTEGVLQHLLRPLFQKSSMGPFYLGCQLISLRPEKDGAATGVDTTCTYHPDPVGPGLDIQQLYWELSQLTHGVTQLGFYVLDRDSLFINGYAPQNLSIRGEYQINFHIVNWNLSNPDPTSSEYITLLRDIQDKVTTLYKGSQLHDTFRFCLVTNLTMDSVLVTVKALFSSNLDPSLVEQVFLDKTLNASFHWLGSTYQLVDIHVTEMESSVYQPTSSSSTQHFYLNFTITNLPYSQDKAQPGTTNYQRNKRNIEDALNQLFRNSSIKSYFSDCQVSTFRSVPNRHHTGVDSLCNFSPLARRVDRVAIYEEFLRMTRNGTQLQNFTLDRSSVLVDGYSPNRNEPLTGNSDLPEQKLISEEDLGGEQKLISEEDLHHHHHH

Here are results for three substances from patent US20200199233A1.

“And” between values parts separate entries of the source, which are not always exact repeats. Equal entries are not always repeated.

Chain of mCD28.mmh (mouse) (chain, as listed by the source limits assumed): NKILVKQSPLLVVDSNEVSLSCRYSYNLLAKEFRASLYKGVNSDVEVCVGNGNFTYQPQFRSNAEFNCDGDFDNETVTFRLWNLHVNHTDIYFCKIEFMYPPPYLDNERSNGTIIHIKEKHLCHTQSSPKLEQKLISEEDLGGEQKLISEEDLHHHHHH

By EC50 is commonly meant the concentration that produces a half-maximal response. Substance “CD3-BINDING CONTROL (bispecific antibody)” displayed an EC50 in assay [1] of 2.27 nM.
REGN4018 (bispecific antibody): in assay [2], the PEO1 Kill EC50 [M], human PBMCs, MUC16xCD3 as single agent was 1.27e-10 M; the PEO1 Kill EC50 [M], human PBMCs, MUC16xCD3 titrated in the presence of bs24963D was 1.07e-10 M and 5.31e-11 M; the PEO1 min. % viability, human PBMCs, MUC16xCD3 as single agent amounted to 57%; the PEO1 min. % viability, human PBMCs, MUC16xCD3 titrated in the presence of bs24963D is 9.8%. In assay [2], the PEO1 min. % viability, human PBMCs, MUC16xCD3 titrated in the presence of bs32897D stood at 17.7%. The EC50 in assay [3] was found to be 1.84 nM.
Broadly, the Kd is the constant that tells how readily two partners part at equilibrium. A higher Kd goes with weaker binding. What is called koff is the first-order rate constant of dissociation. Read a high koff as a short-lived complex. The kon is the rate constant with which the complex forms. A high value points to faster complex formation. For REGN4615 (bispecific antibody), in assay [4], the Kd turned out to be 3.76 nM, the T½ came to 2.48 h, the koff worked out at 7.77e-05 s⁻¹ and the kon was determined as 20700 M⁻¹ s⁻¹. In assay [5], this substance showed a 90 nM hMUC16.mmh Bind (RU) of 513 RU, a Kd of 0.749 nM, a T½ of 0.408 h and a koff of 0.000472 s⁻¹. The substance also had an association rate constant (kon) in assay [5] of 629000 M⁻¹ s⁻¹.
